Assay results reported in patent publication US20200362034A1.

Biological target: human glucagon ligand peptide-1 receptor (GLP1R) (human) (UniProt P43220)
Test: cell-based or functional assay

Chain of human glucagon ligand peptide-1 receptor (GLP1R) (human) (P43220 24-463): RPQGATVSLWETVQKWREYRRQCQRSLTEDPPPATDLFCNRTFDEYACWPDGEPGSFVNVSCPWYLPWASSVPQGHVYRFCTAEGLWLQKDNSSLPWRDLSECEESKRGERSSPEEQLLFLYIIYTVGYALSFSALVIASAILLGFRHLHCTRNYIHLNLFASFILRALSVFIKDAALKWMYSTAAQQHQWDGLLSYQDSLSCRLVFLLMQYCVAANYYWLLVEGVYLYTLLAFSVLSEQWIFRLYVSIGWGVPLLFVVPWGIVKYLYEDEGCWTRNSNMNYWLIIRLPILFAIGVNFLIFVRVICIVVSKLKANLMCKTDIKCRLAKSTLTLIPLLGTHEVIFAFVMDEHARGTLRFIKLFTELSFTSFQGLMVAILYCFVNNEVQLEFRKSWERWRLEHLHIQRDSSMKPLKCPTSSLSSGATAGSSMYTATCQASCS

Work on Extendin-4 (peptide) yielded an EC 50 (nM), cAMP Hunter bioassay on CHO-K1 cells overexpressing human GLP1R of 0.46 nM.
